We go through nine molecules from patent US20190185530A1 (WESTFAELISCHE WILHELMS UNIVERSITAET MUENSTER, published 2019).

The labels stand for the following.
T1: human S100A9 protein of Uniprot accession no. P06702 (recombinant, wild type) (human, UniProt P06702 2-114)
T1 construct: Recombinant; also called recS100A9; S100A9 wt
T1 sequence: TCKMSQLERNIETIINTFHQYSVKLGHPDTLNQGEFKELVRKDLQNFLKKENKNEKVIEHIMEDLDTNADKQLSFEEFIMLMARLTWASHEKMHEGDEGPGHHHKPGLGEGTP

B1: human S100A8 protein of Uniprot accession no. P05109 (recombinant) (other)
chain: LTELEKALNSIIDVYHKYSLIKGNFHAVYRDDLKKLLETECPQYIRKKGADVWFKELDINTDGAVNFQEFLILVIKMGVAAHKKSHEESHKE
notes: Recombinant; also called recS100A8
B2: recS100A8/S100A9(N69A) mutant heterodimer (other)
chain 1: B1 chain
chain 2: T1 sequence with N68A
notes: Heterodimer tested for association with itself into a tetramer; also called recS100A8/S100A9(N69A) mutant complexes
B3: recS100A8/S100A9(N69A+E78A) mutant heterodimer (other)
chain 1: B1 chain
chain 2: T1 sequence with N68A, E77A
notes: Heterodimer tested for association with itself into a tetramer
B4: recS100A8/S100A9(E78A) mutant heterodimer (other)
chain 1: B1 chain
chain 2: T1 sequence with E77A
notes: as for B3
B5: recS100A8/S100A9 wt heterodimer (other)
chain 1: B1 chain
chain 2: T1 sequence
notes: This heterodimer is the unit that joins with a second one to form the (S100A8/S100A9)2 tetramer when calcium is present; also called recS100A8/S100A9 wt complexes; wt S100A8/S100A9
B6: S100A9 (N69A+E78A), mutant of human S100A9 having a double Asn69→Ala and Glu78→Ala substitution (other)
chain: T1 sequence with N68A, E77A
B7: S100A9 (N69A), mutant of human S100A9 having a single Asn69→Ala substitution (other)
chain: T1 sequence with N68A
B8: S100A9 (E78A), mutant of human S100A9 having a single Glu78→Ala substitution (other)
chain: T1 sequence with E77A
B9: wild type human S100A12 protein (recombinant), single chain (other)
chain: TKLEEHLEGIVNIFHQYSVRKGHFDTLSKGELKQLLTKELANTIKNIKDKAVIDEIFQGLDANQDEQVDFQEFISLVAIALKAAHYHTHKE
notes: also called recS100A12 wt; wtS100A12

The target of data set [1] is T1, human S100A9 protein of Uniprot …. The data set is described as follows: MALDI-MS, native conditions, without calcium. The source says:
(§1) FIG. 5: MALDI mass spectra in the absence and presence of calcium under native solvent conditions. (a) MALDI mass spectra of recS100A8/S100A9 wt complexes in the absence (left) and presence (right) of calcium using 2,6-dihydroxy-acetophenone as matrix. The mass spectra between m/z 20,000 and 100,000 together with an inset between m/z 46,000 and 50,000 are shown. T⁺, singly charged; T²⁺, doubly charged; T³⁺, triply charged tetramer. (b) MALDI mass spectra of recS100A8/S100A9(N69A) mutant complexes in the absence (left) and presence (right) of calcium.
S100A8 and S100A9 exist as heterodimers in the absence of calcium, and these heterodimeric complexes associate to (S100A8/S100A9)₂ tetramers upon calcium-binding. […] In the absence of calcium, samples show intense signals of singly charged heterodimers. […] Other prominent signals are detected at molecular masses of around 24 kDa and 16 kDa, representing doubly charged (T2+) or triply charged (T3+) tetramers in accordance with results reported earlier for the native proteins purified from human granulocytes. The number of Ca2+ bound to the tetramers was calculated from the difference between the observed masses of the tetramers and the sum of the calculated theoretical molecular masses of the monomeric components.

Data set [2] deals with the molecule itself. The data set is described as follows: MALDI-MS, native conditions, with calcium (heterodimer to heterodimer).
Excerpt: as §1

Data set [3] deals with the molecule itself. Description: glycerol density gradient centrifugation with calcium, SDS-PAGE of fractions (heterodimer to heterodimer). As for the experimental part: (§2) FIG. 7: Density gradient centrifugation of S100A8/S100A9 proteins. wt and mutant recS100A8/S100A9 complexes were loaded on a glycerol gradient in the presence of either 1 mM EGTA or 100 μM Ca2+. After centrifugation, successive fractions of the gradients were analyzed by SDS-PAGE. […] Addition of calcium induced a marked shift for recS100A8/S100A9 wt to higher glycerol densities, whereas for the mutant complexes recS100A8/S100A9(N69A) and recS100A8/S100A9(E78A) no shift was observed.

Data set [4] has as its target B1. Description: ESI-MS, native conditions.
In data set [5] the target is B1. Description: glycerol density gradient centrifugation with EGTA, SDS-PAGE of fractions. As for the experimental part:
as §2

Data set [6] concerns the molecule itself. The data set is described as follows: glycerol centrifugation with EGTA, Bradford assay of fractions (homodimer). The procedure:
FIG. 8: Glycerol centrifugation of S100A12 proteins. Wild type (wt) and mutant recS100A12 complexes were loaded on a 15% glycerol solution in the presence of either EGTA or Ca²⁺ or Zn²⁺ or Ca²⁺/Zn²⁺. Buffer conditions were 20 mM HEPES, 140 mM NaCl, pH 7.4. After centrifugation, successive fractions of the gradients were analyzed by the colorimetric assay Bradford. […] Addition of calcium or zinc alone induced no shift for wtS100A12 to higher glycerol fractions. Addition of calcium plus zinc induced a marked shift for wtS100A12 to higher glycerol fractions, whereas for the mutant complex recS100A12(E73A) no shift was observed. FIG. 8A: Protein concentrations of collected fractions determined by Bradford assay. Sample A: S100A12 wild type+2 mM EGTA, sample B S100A12 wild type+5 mM CaCl₂, sample C: S100A12 wild type+1 mM Zn, sample D S100A12 wild type+200 μM Zn, sample E: S100A12 wild type+5 mM CaCl₂+200 μM Zn, sample F: S100A12 wild type+2.5 mM CaCl₂+100 μM Zn FIG. 8B: Summary of collected and analysed fractions of wtS100A12 (see FIG. 8A) in the presence or absence of bivalent cations as indicated in the figure. FIG. 8C Summary of collected and analysed fractions of wtS100A12 and recS100A12E73A mutant in the presence (5 mM CaCl₂+200 μM Zn, 2.5 mM CaCl₂+100 μM Zn) or absence (2 mM EGTA) of bivalent cations as indicated in the figure.

Changes are numbered by the printed parent chain. Names may count otherwise.

For B1, the binding result in data set [1] is on record as “binds”.

As to B2, the binding result in data set [2] is on record as “no binding”.

For B3, the binding result in data set [2] is listed as “no binding”.

On to B4, for which the binding result in data set [2] was “no binding”.

On to B5, for which the binding result in data set [3] is “binds”.

For B6, the binding result in data set [4] is reported as “binds”.

Consider B7, for which the binding result in data set [5] is “binds”.

In the case of B8, in data set [5], the binding result is “binds”.

Consider B9, for which, in data set [6], the binding result is “binds”.
